{
  "source": "paper PMC3036992",
  "biological_target": "T1, RB69 DNA polymerase (RB69 pol) (Bacteriophage RB69, UniProt Q38087 1-903, D222A;D327A)",
  "T1 sequence": "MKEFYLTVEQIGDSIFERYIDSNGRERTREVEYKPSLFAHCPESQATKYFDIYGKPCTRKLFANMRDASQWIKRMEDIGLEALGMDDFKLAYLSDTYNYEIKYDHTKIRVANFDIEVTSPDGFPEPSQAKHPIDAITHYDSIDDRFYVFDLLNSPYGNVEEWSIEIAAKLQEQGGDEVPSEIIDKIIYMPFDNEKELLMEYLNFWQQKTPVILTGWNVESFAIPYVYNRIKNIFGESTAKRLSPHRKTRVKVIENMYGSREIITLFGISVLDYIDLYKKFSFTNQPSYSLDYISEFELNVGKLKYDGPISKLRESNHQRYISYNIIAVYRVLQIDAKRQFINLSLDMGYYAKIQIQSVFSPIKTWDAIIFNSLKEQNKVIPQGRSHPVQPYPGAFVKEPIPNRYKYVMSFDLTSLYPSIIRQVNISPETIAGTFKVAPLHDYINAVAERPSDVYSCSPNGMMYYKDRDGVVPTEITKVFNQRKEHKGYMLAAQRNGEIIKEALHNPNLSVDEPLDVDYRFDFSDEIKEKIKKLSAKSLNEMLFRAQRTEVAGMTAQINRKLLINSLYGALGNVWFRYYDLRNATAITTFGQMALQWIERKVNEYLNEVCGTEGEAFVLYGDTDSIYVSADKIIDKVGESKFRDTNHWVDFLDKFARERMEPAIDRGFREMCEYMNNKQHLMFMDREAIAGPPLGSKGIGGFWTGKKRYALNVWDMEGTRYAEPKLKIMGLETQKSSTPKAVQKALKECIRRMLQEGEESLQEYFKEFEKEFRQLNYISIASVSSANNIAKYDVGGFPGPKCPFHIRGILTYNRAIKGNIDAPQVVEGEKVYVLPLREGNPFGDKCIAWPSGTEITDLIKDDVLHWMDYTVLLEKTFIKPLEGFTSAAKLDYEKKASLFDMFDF",
  "test": "X-ray crystallography",
  "data": [
    {"binder": "P/T cocrystallization duplex (18-mer template/13-mer ddC primer) (dsDNA, primer 3' terminus dideoxy (ddC)) DNA 1: TCAGGTAAGCAGTCCGCG DNA 2: GCGGACTGCTTAC", "values": [
      {"measurement": "binding result", "value": "binds"}
    ]}
  ]
}
